Source: patent US20260193326A1 (published 2026)
Substitutions are numbered along the chain they refer to. Read-outs that look alike come from different tables or passages of the source.

B1: A4-H5 (VHH)
VHH: VQLQASGGGFVQPGGSLRLSCAASGRGFSINTMGWFRQAPGKERELVAVVTRGGTTYYADSVKGRFTISRDNSKNTVYLQMNSLRAEDTAVYYCHVDEVRQSSWTTSNLWGQGTQVTVSS
B2: A4-H2 (VHH)
VHH: B1 VHH with G27S, L46F, T55S, V91T, V96I, L109I
B3: A4-108 (VHH)
VHH: VQLQESGGGLAQPGGSLRLSCLASGSGFSINTMGWYRQAPPKWRELVATVTRGGSTNYAGSVKGRFTISRDNPKNTVYLQMNSLRPEDTAVYYCHLDEVRQSTWTTSNIWGQGTQVTVSS
B4: A4-044 (VHH)
VHH: VQLQESGGGLVQPGGSLRLSCAASGSSFSINTMGWYRQAPGKQRELVATVTRGGVTNYADSVKGRFTISRDNAKNTVYLQMNSLRPEDTAVYYCHVDEVRQSSWTTSNLWGQGTQVTVSS
B5: A4-038 (VHH)
VHH: B4 VHH with S27H, V55S, D60N, V96L
B6: A4-021 (VHH)
VHH: B4 VHH with P13A, S27T, V50I, V55N, L109I
B7: A4-011 (VHH)
VHH: B4 VHH with P13A, S27I, T32S, V55N, D60G, Q101E
B8: A4-012 (VHH)
VHH: B4 VHH with L10A, P13A, S27I, T32S, V55N, D60G, Q101E
B9: A4-039 (VHH)
VHH: B4 VHH with S27G, Q43W, V55S, D60G, V96I
B10: A4-001 (VHH)
VHH: B4 VHH with S26R, V55S, D60G, V96I, L109I
B11: A4-048 (VHH)
VHH: B4 VHH with S27M, V55N, D60G
B12: A4-034 (VHH)
VHH: B4 VHH with S26R, S27G, T49A, V55T
B13: A4-032 (VHH)
VHH: B4 VHH with A22V, G53D, V55S, D60N
B14: A4-024 (VHH)
VHH: B4 VHH with S27N, S29R, V55S, A73P, Q101E
B15: A4-046 (VHH)
VHH: B4 VHH with S27R, V55S
B16: A4-112 (VHH)
VHH: VQLQESGGGLVQTGGSLRLSCIASGSIFSINTVGWYRQAPPKQRELVATVTRAGSTWYAGSVKGRFTISRDNAKNTIYLQMNTLRPEDTAVYYCHVDEVRQSTWTTSNIWGQGTQVTVSS
B17: A4-113 (VHH)
VHH: B16 VHH with I22V, I27R, P41G, A53G, A73T, T83S, V99I, I109L
B18: A4-106 (VHH)
VHH: VQLQESGGGLVQPGGSLRLSCIASGSIFSLNAMGWYRQAPGKQRELVATITSGGSTNYADSVKGRFTISRDNAKNTAYLQMNNLQPEDTAVYYCHVDEVRESIWTTSNLWGQGTQVTVSS
B19: A4-109 (VHH)
VHH: VQLQESGGGLVQAGGSLRLSCAASGTIFSLNVMGWYRQAPGKQRELVASVTRGGNTNYADSVKGRFTISRDNAKTTVYLQMNSLRPEDTAVYYCHVDELRDSTWTTSNLWGQGTQVTVSS
B20: A4-107 (VHH)
VHH: B4 VHH with A22I, S27G, M33V, G41A, V50L, V55S, A73P, L109I
B21: A4-110 (VHH)
VHH: VQLQESGGGLVQPGGSLRLSCFASGTNFSINVVGWYRQAPGKQRELVATITRGGSTNYAESVKGRFTISRDNAKNTVYLQMNNLRPEDTAVYYCHLDEVRDSSWTTSNLWGQGTQVTVSS

Tests used:
Test in all cases: SPR, AAV on CM5 chip
AAV5 [1] = biological target: T1, AAV5 (adeno-associated virus serotype 5)
T1 construct: also called adeno-associated virus serotype 5

AAV8 [2] = biological target: T2, AAV8 (adeno-associated virus serotype 8)
T2 construct: also called adeno-associated virus serotype 8

AAV9 [3] = biological target: T3, AAV9 (adeno-associated virus serotype 9)
T3 construct: also called adeno-associated virus serotype 9

AAV5 [4] = biological target: T1, AAV5; remark: listed apart in the source
Description: (§1) AAV was amine-coupled to a CM5 sensor chip at a density of 500-800 response units (RU). Nanobodies were injected at seven concentrations (1-100 nM) with a flow rate of 45 μL/min, and chip regeneration was performed using glycine-HCl (pH 1.5). Binding curves at different nanobody concentrations were used to calculate kinetic parameters (Kₐ, Kd, KD) (Table 2 and FIG. 2).

AAV8 [5] = biological target: T2, AAV8; remark: listed apart in the source
Description: as §1

AAV9 [6] = biological target: T3, AAV9; remark: listed apart in the source
Description: as §1

AAV5 [7] = biological target: T4, AAV5
T4 construct: also called adeno-associated virus serotype 5
Description: as §1

AAV9 [8] = biological target: T5, AAV9
T5 construct: also called adeno-associated virus serotype 9
Description: as §1

AAV2 = biological target: T6, AAV2 (UniProt P03135 1-735)
T6 construct: also called adeno-associated virus serotype 2
Description: as §1

AAV8 [9] = biological target: T7, AAV8
T7 construct: also called adeno-associated virus serotype 8
Description: as §1

Binder | Kd (AAV5 [4]) [nM] | koff (AAV5 [4]) [s⁻¹] | kon (AAV5 [4]) [M⁻¹ s⁻¹] | Kd (AAV8 [5]) [nM] | koff (AAV8 [5]) [s⁻¹] | kon (AAV8 [5]) [M⁻¹ s⁻¹] | Kd (AAV9 [6]) [nM] | koff (AAV9 [6]) [s⁻¹] | Kd (AAV5 [7]) [nM] | koff (AAV5 [7]) [s⁻¹] | kon (AAV5 [7]) [M⁻¹ s⁻¹] | Kd (AAV9 [8]) [nM] | koff (AAV9 [8]) [s⁻¹] | kon (AAV9 [8]) [M⁻¹ s⁻¹] | Kd (AAV2) [nM] | koff (AAV2) [s⁻¹] | kon (AAV2) [M⁻¹ s⁻¹] | Kd (AAV8 [9]) [nM] | koff (AAV8 [9]) [s⁻¹] | kon (AAV8 [9]) [M⁻¹ s⁻¹] | also measured
B1 |  |  |  |  |  |  |  |  |  |  |  |  |  |  |  |  |  |  |  |  | Kd (AAV5 [1]): 823 nM; koff (AAV5 [1]): 0.00152 s⁻¹; kon (AAV5 [1]): 1850 M⁻¹ s⁻¹; Kd (AAV8 [2]): 302 nM; koff (AAV8 [2]): 0.0013 s⁻¹; kon (AAV8 [2]): 4300 M⁻¹ s⁻¹; Kd (AAV9 [3]): 1900 nM; koff (AAV9 [3]): 0.0058 s⁻¹; kon (AAV9 [3]): 3050 M⁻¹ s⁻¹
B2 |  |  |  |  |  |  |  |  |  |  |  |  |  |  |  |  |  |  |  |  | Kd (AAV5 [1]): 8.51 nM; koff (AAV5 [1]): 0.00139 s⁻¹; kon (AAV5 [1]): 163000 M⁻¹ s⁻¹; Kd (AAV8 [2]): 1.98 nM; koff (AAV8 [2]): 0.00028 s⁻¹; kon (AAV8 [2]): 141000 M⁻¹ s⁻¹; Kd (AAV9 [3]): 400 nM; koff (AAV9 [3]): 0.00188 s⁻¹; kon (AAV9 [3]): 4700 M⁻¹ s⁻¹
B3 | 7.12 | 0.00105 | 148000 | 7.94 | 0.00085 | 107000 | 3.54 | 0.00061 |  |  |  |  |  |  |  |  |  |  |  |  | kon (AAV9 [6]): 172000 M⁻¹ s⁻¹
B4 |  |  |  |  |  |  |  |  | 7.47 | 0.00137 | 183000 | 13.1 | 0.00188 | 143000 | 13.1 | 0.00069 | 52900 | 1.52 | 0.00024 | 158000 | 
B5 |  |  |  |  |  |  |  |  | 1.57 | 0.00028 | 178000 | 7.29 | 0.0011 | 151000 | 0.704 | 0.00014 | 199000 | 69.5 | 0.0005 | 7190 | 
B6 |  |  |  |  |  |  |  |  | 7.81 | 0.00094 | 120000 | 1.87 | 0.00014 | 74700 | 0.798 | 4.37e-05 | 54800 | 7.41 | 0.00155 | 209000 | 
B7 |  |  |  |  |  |  |  |  | 29.6 | 0.00028 | 9460 | 132 | 0.0582 | 439000 | 284 | 0.0462 | 163000 | 30.4 | 0.00272 | 89400 | 
B8 |  |  |  |  |  |  |  |  | 18.6 | 0.00173 | 93100 | 672 | 0.0694 | 103000 | 1180 | 0.0554 | 47000 | 324 | 0.00417 | 12900 | 
B9 |  |  |  |  |  |  |  |  | 246 | 0.00182 | 7410 | 360 | 0.001 | 2780 | 39.5 | 0.00015 | 3800 | 281 | 0.00177 | 6290 | 
B10 |  |  |  |  |  |  |  |  | 6.47 | 0.00098 | 151000 | 142 | 0.0116 | 81600 | 1.06 | 6.35e-05 | 60100 | 3.64 | 0.000669 | 184000 | 
B11 |  |  |  |  |  |  |  |  | 54.4 | 0.00051 | 9380 | 399 | 0.0013 | 3260 | 155 | 0.00137 | 8850 | 146 | 0.00031 | 2130 | 
B12 |  |  |  |  |  |  |  |  | 12.2 | 0.00021 | 17200 | 6.8 | 0.00129 | 190000 | 3.36 | 0.00066 | 196000 | 7.84 | 0.00047 | 59900 | 
B13 |  |  |  |  |  |  |  |  | 6.7 | 0.0009 | 134000 | 16.4 | 0.00108 | 65900 | 2.53 | 0.0004 | 158000 | 12.8 | 0.00169 | 132000 | 
B14 |  |  |  |  |  |  |  |  | 35.5 | 0.00013 | 3670 | 251 | 0.00173 | 6900 | 639 | 0.00069 |  | 209 | 0.00148 | 7080 | 
B15 |  |  |  |  |  |  |  |  | 55.3 | 0.00933 | 169000 | 16.1 | 0.00269 | 167000 | 48.8 | 0.00725 | 148000 | 37.6 | 0.00455 | 121000 | 
B16 | 31.6 | 0.00412 | 130000 | 1.11 | 0.00021 | 188000 | 36.6 | 0.0052 |  |  |  |  |  |  |  |  |  |  |  |  | kon (AAV9 [6]): 142000 M⁻¹ s⁻¹
B17 | 218 | 0.00145 | 6660 | 3.25 | 2e-05 | 6150 | 52.5 | 0.00051 |  |  |  |  |  |  |  |  |  |  |  |  | kon (AAV9 [6]): 9720 M⁻¹ s⁻¹
B18 | 2.12 | 0.00042 | 198000 | 16 | 0.00191 | 120000 | 1.65 | 0.00011 |  |  |  |  |  |  |  |  |  |  |  |  | kon (AAV9 [6]): 66600 M⁻¹ s⁻¹
B19 | 3.74 | 0.00022 | 58800 | 2.27 | 0.00035 | 154000 | 42.4 | 0.00071 |  |  |  |  |  |  |  |  |  |  |  |  | kon (AAV9 [6]): 16800 M⁻¹ s⁻¹
B20 | 703 | 0.00353 | 5020 | 848 | 0.00101 | 1190 | 1680 | 0.00356 |  |  |  |  |  |  |  |  |  |  |  |  | kon (AAV9 [6]): 2120 M⁻¹ s⁻¹
B21 | 37.8 | 0.00035 | 9270 | 860 | 0.00596 | 6930 | 347 | 0.0014 |  |  |  |  |  |  |  |  |  |  |  |  | kon (AAV9 [6]): 4040 M⁻¹ s⁻¹
